Patent publication EP4659811A1 (Université de Strasbourg, dated 2025)
Numbering of substitutions follows the chain as printed.

B1: antibody B7P6 (antibody, V domains shown)
VH: EVQLVQSGAELKKPGESLKISCKGSGFTFTNYWIAWVRQMPGKGLEWMGIIYPDDSDARYSPSFEGQVTISVDKSISTAYLQWSSLKASDTAIYYCARGGFCSGSVCYNPAWFDLWGQGTLVTVSS
VL: DIQMTQSPSSLSASVGDRVTITCRASQTINTYLNWYLQKPGKAPKLLISDASSLETGVPSRFSGSGSGTDFTLTISSLQPDDFATYYCQQSYSTPLTFGGGTKVEIK
B2: antibody F3P6 (antibody, V domains shown)
VH: QVQLVQSGAEVKKPGASVKVSCKASGYTFTTHIIHWVRQAPGQRLEWMGWINAGNGNTHYSEKFQGRVTLTRDTSASTAYMELSSLRSEDTAIYYCAREDQWLGRSPLEYWGQGTLVTVSS
VL: EIVLTQSPGTLSLSPGERATLSCRASQSVSSSYLAWYQHKPGQAPRLLIYGASSRATGIPDRFSGSGSGTDFTLTISRLEPEDFAVYYCQQYGNSYPWTFGQGTKVEIK
B3: antibody G5P6 (antibody, V domains shown)
VH: B2 VH with H59K
VL: B2 VL with I76V
B4: antibody D7P6 (antibody, V domains shown)
VH: EVQLLESGGGLVQPGGSLRLSCAASGFPFSSYAMSWVRQAPGKGLEWVSGITGSASGTYYADSVKGRFTISRDNSKNTLYLRMNSLRAEDTAVYYCAKEGAYSYDYWYFDLWGRGTLVTVSS
VL: EIVLTQSPGTLSLSPGERATLSCRASQSVSGSYLAWYQQKPGQTPRLLIYGASSRATGIPDRFSGSGSGTDFTLTINRLDPEDFGVYYCQQYGSLVTFGGGSKVEIK
B5: antibody E4P2 (antibody, V domains shown)
VH: QVQLQESGPGLVKPSQTLSLTCTVSGGSISSGGYYWSWIRQHPGKGLEWIGYMYYSGSTNYNPSLKSRVTISVDTSKNQFSLKLTSVTAADTAVYYCARDRRDYGDYYYFGMDVWGQGTTVTVSS
VL: QSVLTQPPSVSGAPGQRVTISCTGSSSNIGAGYDVHWYQQLPGTAPKLLIYANSNRPSGVPDRFSGSKSGTSASLAITGLQAEDEANYYCQSYDSSLSVYVVFGGGTKLTVL
B6: antibody E6P5 (antibody, V domains shown)
VH: EVQLVESGGGLVQPGRSLRLSCSASGFTFDDHAMHWVRQAPGKGLEWVAGINWNSASIVYADSVKGRFTISRDNVKNSLYLQMNSLRADDTALYYCAKDFGLWFGESRGIDAWGRGTTVTVSS
VL: DIVMTQSPLSLPVTPGEPASISCRPSQSLLHSNGYNYLNWYLQKPGRSPQLLIYLGSNRASGVPDRFSGSGSGTDFTLKISRVEAEDVGIYYCMQALQTPITFGQGTRLEIK
B7: antibody C6P7 (antibody, V domains shown)
VH: QVQLQESGPGLVRPSQTLSLTCTVSGGSMTSGSYYWSWIRQPAEKGLEWIGRIYTSGRTDYNPSLKSRVAMSIDTSKNQFSLRLTSVTAADTAVYYCARWGDSSAYYYVGDPWGRGTPVTVSS
VL: DIQMTQSPSSLSASIGDRVTITCRASQNINTYLYWYQQKPGKAPQLLIYAASNLQTGAPSRFSGSGSGTDFTLTISSLQPADFATYYCQQSFSLPHTFGQGTKVEIK
B8: antibody G8P6 (antibody, V domains shown)
VH: B7 VH with P118T
VL: B7 VL with V104L
B9: antibody F3P7 (antibody, V domains shown)
VH: QVQLVQSGAEVKKPGASVKVSCKVSGYTFTSYSMHWLRQAPGQRLEWMGWINAGNGDTKYSQKFQGRITISRDTSARTTYMELSSLRSEDTAVFYCARSNSPTVTYNYYYYAMDVWGQGTTVTVSS
VL: EIVLTQSPGTLSLSPGERATLSCRASQSVRSSYLAWYQQQAGQAPRLLIYDASSRATGIPDRFSGSGSGTDFSLTISRLDPEDFAVYYCQQYGNSPLTFGGGTKVEIK
B10: antibody D3P7 (antibody, V domains shown)
VH: QVQLVQSGSELKKPGASVRVSCKASAYTFTNSAINWVRQAPGQGLEWTGWINTNTGNPAYAQGFRGRFVFSLDTSVSEAYLQITNLKAEDTATYYCAVPYNFGGDHNSFHFFGMDVWGQGTTVTVSS
VL: QSALTQPASVSGSPGQSITISCTGSSSDVGTYNFVSWYQQQPAKAPKVMIYEGTKRPSGISDRFSGSKSGNTASLTISGLQAEDEADYYCSSYAGGNAFVFGTGTRVSVL
B11: antibody B10P1 (antibody, V domains shown)
VH: EVQLSESGGGLVQPGGSLRLSCAASGFTFSSYAMSWVRQAPGKGLEWVSSLTGSGGSTYYRDSVKGRFTIFRDNSKKTLYMQMNSLRAEDTAVYYCAKEGAYSYDFWYFDLWGRGTLVTVSS
VL: EIVLTQSPGTLSLSPGERATLSCRASQTVSGNYLAWYQQKPGQSPSLLIYGASSRATGIPDRFTGSGSGTDFTLTISRLEPADFAVYYCQQYGRPLTFGGGTKVDIK
B12: antibody G9P2 (antibody, V domains shown)
VH: B11 VH with S5L
VL: B11 VL with I49T, D105E
B13: antibody F4P5 (antibody, V domains shown)
VH: EVQLVESGGGVVQPGRSLRLSCAASGFTFSNFGMHWVRQPPGKGLEWVAVISYDGSDKFYADSVKGRFTISRDNFKNTLYVQMNSLRAEDTAVYYCAKDRVRTKYYYDHSGPFDYWGRGTLVTVSS
VL: SYELTQPPSVSVAPGQTARIACGGNNIGSKSVHWYQQRPGQAPVLVVYDDDDRPSGIPERFSGSNSGNTATLTISRVEAGDEADYFCQVWMTNSDRPVFGGGTKLTVL
B14: antibody D11P7 (antibody, V domains shown)
VH: EVQLVESGGGLVQPGGSLRLSCAASGFTFRSYTMDWVRQAPGKGLEWVSCISGSSNHKYYADSVRGRFTISRDNAKNSLFLQMNSLRAEDSAVYYCAREDDILTPLYGMDVWGPGTTVTVSS
VL: QSALTQPASVSGSPGQSITISCTGTSSDVGAYNYVSWYRLRPGKDPHLIIYDVSHRPAGVSNRFSGSKSGNTASLTISGLQAEDEDEYYCCSYAHRGTPLFGGGTKLTVL
B15: antibody C11P7 (antibody, V domains shown)
VH: EVQLVESGGGLVQPGGSLKLSCAASGFSLSNSEVHWVRQASGKGLEWIGRVRSRANRHATGYTESVNGRFTVSRDDSKNTASLQLESLKIEDTAVYYCTGVRGVISRYFAMDVWGQGTTVTVSS
VL: B14 VL
B16: antibody F2P7 (antibody, V domains shown)
VH: EVQLVQSGGGLVQPGGSLKLSCAASGFSSSGSEIHWVRQASGRGLEWIGRVRSTANRHAPGYTESVRGTFTVSRDESKNTASLELKSLKIEDTAVYYCTGVRGVISRYFAMDVWGQGTTVTVSS
VL: QSALTQPASVSGSPGQSITISCTGTNSDLGSYNYVSWYRLHPGKDPHLIIYDVTHRPSGVSSRFSGSKSGKTASLTISGLQSEDEAEYFCCSYASVGSPIFGGGTKVTVL

Assays:
[1] = biological target: T1, VP1 pentamer of BKV genotype IV (recombinant) (BK virus genotype IV, UniProt P14996 30-300); assay: ELISA, coated VP1 pentamer
T1 construct: also called GIV; VP1 BKV subtype IV; not shown: N-terminal His-tag of pESPRIT002; C-terminal biotin acceptor peptide (BAP) of pESPRIT002

[2] = biological target: T2, VP1 pentamer of BKV genotype II (recombinant) (BK virus genotype II, UniProt P14996 30-300); assay: ELISA, coated VP1 pentamer
T2 construct: also called GII; VP1 geno II pentamer; not shown: N-terminal His-tag of pESPRIT002; C-terminal biotin acceptor peptide (BAP) of pESPRIT002

[3] = biological target: VP1 capsid protein on BKV pseudovirions of genotype Ia (BK-D; JF894228) (BK virus genotype Ia (BK-D)); assay: cell-based or functional assay
[4] = biological target: VP1 capsid protein on BKV pseudovirions of genotype II (GBR-12; AB263920) (BK virus genotype II (GBR-12)); assay: cell-based or functional assay
[5] = biological target: VP1 capsid protein on BKV pseudovirions of genotype IVc2 (A-66H; AB369093) (BK virus genotype IVc2 (A-66H)); assay: cell-based or functional assay

| Binder | EC50 [1] [µg/mL] | EC50 [2] [µg/mL] | Neutralization PSV IC50 [3] [µg/mL] | Neutralization PSV IC50 [4] [µg/mL] | Neutralization PSV IC50 [5] [µg/mL] | binding result [1] | binding result [2] |
| --- | --- | --- | --- | --- | --- | --- | --- |
| B1 | 0.1 | 0.04 | 0.0479 | 0.0044 | 0.121 |  |  |
| B2 | 1.25 | 0.15 | 0.363 | 0.0062 | 0.262 |  |  |
| B3 | 0.7 | 0.28 | 0.299 | 0.0082 | 0.0889 |  |  |
| B4 | 70 | 0.25 | 0.096 | 0.0103 | > 50 |  |  |
| B5 | 0.18 | 0.025 | 0.0399 | 0.979 | > 50 |  |  |
| B6 | 3 | 0.6 | 0.0008 | 0.232 | 1.19 |  |  |
| B7 | 0.08 | 0.55 | 0.104 | 0.0002 | 0.0053 |  |  |
| B8 | 0.06 | 0.08 | 6.44 | 0.0058 | 0.0582 |  |  |
| B9 | 1.8 | 1.5 | > 50 | 0.0457 | 0.614 |  |  |
| B10 | 0.3 | 0.15 | > 50 | > 50 | > 50 |  |  |
| B11 | 15 | 2.8 | 1.27 | 0.107 | > 50 |  |  |
| B12 | 10 | 1.5 | 0.683 | 0.0336 | > 50 |  |  |
| B13 | 12 | 10 | 0.0008 | 0.471 | 15.9 |  |  |
| B14 |  |  | 0.275 | 0.0901 | > 50 | no binding (tested: starting at 50 µg/mL) | no binding (tested: starting at 50 µg/mL) |
| B15 | 4 | 6 | > 50 | > 50 | > 50 |  |  |
| B16 | 4 | 10 | > 50 | > 50 | > 50 |  |  |
